These results are taken from PMC3979729.

The target of this experiment is TNFR (human (endogenous in primary CD4+ T cells)) (UniProt P19438).
Chain of UniProt P19438 (P19438 30-455): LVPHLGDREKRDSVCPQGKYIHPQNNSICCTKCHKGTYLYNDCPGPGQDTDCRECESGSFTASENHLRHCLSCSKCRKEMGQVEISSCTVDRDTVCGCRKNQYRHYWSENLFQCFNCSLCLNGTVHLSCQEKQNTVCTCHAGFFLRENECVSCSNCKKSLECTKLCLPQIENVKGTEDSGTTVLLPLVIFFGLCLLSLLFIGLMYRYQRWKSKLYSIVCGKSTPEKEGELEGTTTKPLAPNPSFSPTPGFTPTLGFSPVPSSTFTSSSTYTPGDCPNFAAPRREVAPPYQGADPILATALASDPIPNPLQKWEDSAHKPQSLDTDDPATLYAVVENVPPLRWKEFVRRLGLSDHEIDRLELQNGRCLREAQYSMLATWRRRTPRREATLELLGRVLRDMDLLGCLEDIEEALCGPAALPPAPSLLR

The substance “tumor necrosis factor alpha (TNF-α) (from UniProt P01375 1-233) (ligand)” had an other (% necroptosis) of 0.3.
